test: soluble on expression in E. coli; label from the status in PepcDB or PDB records

| Sequence | soluble on expression in E. coli |
| --- | --- |
| MSQLPTDFASLIKRFQFVSVLDSNPQTKVMSLLGTIDNKDAIITAEKTHFLFDETVRRPSQDGRSTPVLYNCENEYSCINGIQELKEITSNDIYYWGLSVIKQDMESNPTAKLNLIWPATPIHIKKYEQQNFHLVRETPEMYKRIVQPYIEEMCNNGRLKWVNNILYEGAESERVVYKDFSEENKDDGFLILPDMKWDGMNLDSLYLVAIVYRTDIKTIRDLRYSDRQWLINLNNKIRSIVPGCYNYAVHPDELRILVHYQPSYYHFHIHIVNIKHPGLGNSIAAGKAILLEDIIEMLNYLGPEGYMNKTITYAIGENHDLWKRGLEEELTKQLERDGIPKIPKIVNGFK | soluble |
| MGSDKIHHHHHHMSLLSVEHLSHGFADKELYEDANFELNKEDHMGIVGQNGAGKSTLIKILTGETLPDKGRIIWQNKVTYGYLDQYADIPKEDTLYEFLTTAYAELFRQRDLMEKYYADYAENLDDKLLEKAGRIQENLDANNFYDIDTEINRVMTGLGLDDIGKDHIVSEMSGGQRSKIILAKLLLQNPDVLILDEPTNYLDTAHISWLADYLNGFEGAFMVISHDYDFLQKVTNCICDVSFNKITKYRGDFQSAMRQKDARKEAQLKAFEKQQVVIEKAENFIRKNKAGQRSTMAKSREKMLNRMEKIDPPSENLKGHFDFPYLDTGSQNAVAVNKLAVGYGKKQLLEPVTFSMSAGEKVAFSGFNGAGKSTLIKSILGVIPALGGEAHFSPSAKVNYFTQELIWDNPKLTPLETIQNQYPKMLPKTIRTKLAKCGINAADTMKPMKQLSGGEQTKVKLALMELIDSNFLIMDEPTNHLDDETKRALSEALQRFKGNLIVVSHEDSFYSQWIDKEINVEKLRLDRE | not soluble |
| MGSDKIHHHHHHMKNNTGYIIGAYPCAPSFHQKSEEEETEFWRQLSDTPDIRGLEQPCLEHLHPLGDEWLLRHTPGNWQIVVTAIMETMRRRSENGGFGLASSDEEQRKACVEYYRHLYQKINKINGNNTGKVIALELHAAPLAGNPNVAQATDAFARSLKEIANWDWSCDLVLEHCDAMTGPAPRKGFLPLVNVLETIADYDISVCINWARSAIEGRDTSLPLIHTQQAKQAGKLGALMFSGTTLDGEYGEWQDLHAPFAPFCPQSLMTEKHVKELITAAAPELLQFTGIKLLEINASADINHRINILRDGINMMKKATRR | not soluble |
| MGIKGSKPKLSKEDLEFLKKNTNFTEEQIKEWYKGFVQDCPKGHLTKEQFIKVYKDFFPSGSAEGFCEHVFRTFDTDNSGFIDFKEFLLAINVTSSGTPEQKLEWAFRMYDIDGNGTIDEKEMIKIIEAIYEMLGPEVTKSADDSPRKRAKMIFEKMDVNNDKELTLKEFVDGCLADKELFQILTNEVKK | not soluble |
| MSSDMRVHSWSCSYYLDLEKQWVSGKLTLTPHSLKFIVEKTEEVLVGLPLSSIIEIRKESSLFIFGAITVLEKGQTKHWFSSLQPSRNVVFNVIEHFWRELLLSQPGTAANIPSHVTRGQELIGLMANSQKRMEDTAKDLQQQSEQLDSVLKGLEKMESDLDVADRLLTELETPSWWPFGSKFWKMPAEENLKEGVSSTCEPFGKEGVVITVPAIISERAESHSKLGKLTVLVSALEIYDSCSLLLHRFEKEDVDDIKVHSPYEVSIRQRFIGKPDVAYQLISAKMPEVIPILEVQFSSKIELLEDALVLRNKVFASSAERHAASRPKGCTPHRELPTGGQEGEQLQLQKNLPLFSEGEAQELTQILSKMKGLALDTEAELERQDAALDGITVAVDRATLNVDKQNRRMRKLM | not soluble |
| MDYRVIKENDVFLLTDQDGNIPEHHPYGLGLYTKDTRFLSKWSLRINGEEPVLLASDAAQNYVATILLTNPHIERDGELILWRESVEIERKRFIYAGVLYETIKLKNYHPKPVQLEISVHMDADFADMFIVRGFQTGEVGKRTGQTIGKRSLTFHYEGADGVERATKVSWDREEKTVKEHGEIVFDFALDRAEEQTVTLMVEPITGKTGRVEVIPPEQALQRLQESYQRWEGETANVITDERQFERLVRRGIGDLRVLLTDLGCGPFPVAGLPWFGVPFGRDSLIAALQLLPFNHEIAKGTLLTMARYQGTKVDPWRDEQPGKIMHEIRFGELANTNQIPFTPYYGTIDATPLFLVLLVEYVKWTGNFDLVRQLRSNIDAALHWIDRYGDRDGDLFVEYFQESSKGIANQGWKDSGDSIVHENGEYARAPIALVEVQGYVYHAKMGLADIFEQLQEVEKAEALRTQAEALKKRFEEQFWMEDRKFYALALDENKAPVRTITSNPGHVLFSGMLEGRRADAVIDTLLSEKMFSGYGIRTMGEGEAGYNPMSYHNGSIWPHDNSLILLGLSKLGRRREAKTVIEGLMEASMHFEYDRLPELFCGYSRSEGKPVRYPVACSPQAWAAGTPLVFVQALLGLFPNALEKNIYLSPTLLDSMNMLRVENILIGGGRLSLTVTREQDNFHVQIDENTTGWDIVLR | not soluble |
| MSWWQDMDQRGGVSSPSGALASAEPAPASVTLAELLHLVQKGQEVPGLEKRHITATHGEPTASLLPRRPKPWEDAGSAASPCTIALDTRTQPPTIEERSRGSPAAQLDGGPRVS | soluble |
| MNIAVSKPPLTIRLCGPRGFCAGVDRAIQIVVLALKAYGAPVYVRHEIVHNRYVVEGLEAKGAIFVEELHEIPAEHREQPVVFSAHGVPKSVPEDAQARNLFYLDATCPLVSKVHKQAMRHQRLGRHVVLIGHAGHPEVIGTMGQLPEGTVSLVETVEDAGVYEPVDRENLGFVTQTTLSVDDTAGVIARLQERFPAIQAPAADSICYATTNRQDAVKQAAPGCDLFIVVGAPNSSNSKRLVEVALRAGAKHSVLVQRASEIDWNEIGDIRTVGLSAGASAPEVIVDEIIEAFKARFDTTLDLAVTVEETEHFLVNRELRSIELTTDDMAFVNGNASNALPPKATAGILEHHHHHH | not soluble |
| MAGQADNRAPYAKIAAHYTELITSGQLQPGSLLPSIKNLAEEWNVSTATAEKALRKLRNEGLVRGIHGIGTEVLDQPAPMSSGAQRQDRGRRTGSSWGAGERSDSHKAAVVPAPAEVAHALDIEPGSDVIRRSRVYRDRHGIVAHSTSWIPARFGRLIPQLAASERLTGGTSLQLIAQVTGHPITHRVDSASARLLTPEYTRLLELDPENPPAEPVVVMTAKFVDSEGTVVEYGVDLGGPGRTWRTESEVTQ | soluble |
| MGSDKIHHHHHHMNKIFKCFPDGKFKVLTMSYDDGKLSDKKLVSIFNKYGIKGTFHINSGLIGSYNRLTKAEIKTLYSGHEVSAHTLTHPTIARCPMEQVTKEILMDRENLEEIVGYPVRGLSYPNGSYNDSIRNLLKYLGIEYSRIVGNSDSFDLPSDFTAWKATCHHNHNLMEHAKEFVFLYKKQYLYMMYVWGHSYEFDRDNNWHLIENFCSYISNKDDIWYATNIEIVDYKNVLDNLKFSAKSDFVYNPSAKSAWITVNDEIVEIKGGTQLKLS | not soluble |
| GQDSEVLLDGVAKLSSHNNVIEDAIEGVDLTLKGKSEPNKPPAEIGVEYDRQSVRSDIENFVSAYNSFYQTSQALSSVDPTTGQKGPLAGDSTVRSADSRLKAVFSSRIDQAPENLKSLTEFGITTTRQGTLEINYDMLDRQLNNNFNELEKFFGGNTGFAKRIEDAIHGITGITGSIRTREKSLTEQNYRLNDDQAALDRRMEGLEKRTHAKFTAMQDATGKMQGQLGALMSALG | not soluble |
| MSSPRHVFYISDRTGLTAENIGEALLNQFGNLSFKRHTHPFVDTPEKARAVVEKVNRSRQENGQRPIAFVSVVDDEIRRIIKGADAFQINFFETFLGLLEKELNTEATASEQGHHSIGNTKRYDARMEAVNFSLNHDDGVSDKNLQEADVILMGVSRSGKTPTCLYLALQYGIRAANYPLIPDDLESADLPRMVKPYRDKLFGLTIQPERLQAIRQERRPNSTYAKIDTCRSEVADAQSMFRRHGIPFANTTDKSVEELAVHILQACKLKRRFLEHHHHHH | soluble |
| MGSDKIHHHHHHMKSSQPFIYEAHAARVVFGAGSSSQVAAEVERLGAKRALVLCTPNQQAEAERIADLLGPLSAGVYAGAVMHVPIESARDATARAREAGADCAVAVGGGSTTGLGKAIALETGMPIVAIPTTYAGSEVTPVYGLTEAGTKRTGRDPRVLPRTVIYDPALTVGLPRGLSVTSALNAIAHAAEGLYARDANPVMSLMAEEGIRALAAGIPAVFNDPADLDARSQCLYGAWLCGTVLGGVGMALHHKLCHTLGGSFNLPHAETHTIVLPHALAYNAAAVPEAMARIRRATGAGEQSAAATLFDLAQRHGAPVALRDIGMREEDLDRAADIALASPYWNPRPIEREPIRALLQAAYEGVRPD | not soluble |
| MRCPNCNSLDTQVKDSRPTEDSSVIRRRRVCIACNFRFTTFERVQLRELIVIKRNGRRVPFDRDKLMRSVQISLRKRPVDPERVEQMVSAIVRELESGGEAEISSETIGESVMDHLRKLDDVAYVRFASVYRNFREAKDFEAVLGELSHEDEARAALVRK | not soluble |
| MSPKFAADLKKTIYDNMTFDPKHYGGRWNILQDHGTSHLSIVDSERNAVSMTTTVNAYFGSLILSPSTGILLNNEMDDFSMPANTSANSPPPAPANFVRPLKRPLSSMTPTIILKDGNLKAAVGASGGSMIPAGTMEVLLNHFVKNMDPLSSVMAPRVYHQLIPNVVQYENWTTVTGDHFELDAATRADLRRKGHVLEPLAGGTISQLVVDDVERHGGLTAVSDPRKGGFPAGY | soluble |
| SVDMQSLDEEDFSVSKSSDADAEFDIVIGNIEDIIMEDEFQHLQQSFMEKYYLEFDDSEENKLSYTPIFNEYIEILEKHLEQQLVERIPGFNMDAFTHSLKQHKDEVSGDILDMLLTFTDFMAFKEMFTDYRAEKEGRGLDLSTGLVVKSLNSSSASPLTPSMASQSI | not soluble |
| MSLTVMSIQDNLTINEKKVLLALEELRSAVPDKLEEKSGLQIDAAMQAAFMLQEKELASVSEKVLERYSLTKEGEEYKKTGLPERQIIDALKNPVSLEELRSCFSPQTVGIATGWLVKKGWAKVENGIMVPSGEASEGKDEKALSAFAGKAKTLEELGADEGTVKDLLKRKLVVKHEEKFRTVSITDAGSELASQGLVLEEEIAQLTPELLKSGAWKEKKFRPYRLDITPKPLYGTKIHPYRRLIEQMRQIFLEMGFTEIKGGIIQSSFWNFDALFQPQDHPARDMQDTFHLGSTCQIPAEYSGKVAAMHENGGDIDSCGWGGIWDRELAGRNVLRTHTTSVTIKYLADNPEPPVKAFCIDRAYRRETIDPTHTPEFEQLEGVVMDKDMSFADLLGLLAEFYHRMGFEEVRFRPGYFPYTEPSVEPEVYVDGLGWVELGGAGVFRKEVTEPLGIKAPVLAWGLGVSRLAMLKLGLKDLRLLYQSDIDWLRKSEVCKEGHHHHHH | soluble |
| MQFNAVLVKLLDELEVRLRAAQLWQATPPSSQALVSQEPFAVDTLLPHEWLQWIFLPKMQQAIAQNAVPRGFALEPYFSEVWQGEARYQAVLAVIQQIDKVCQ | not soluble |
| MTIEDTVIKLIGSLKDPLLDLTGKEMNLQYKITTSNQAMHVVLTAGYPTSLLETSYKPIVQKIVQDEFPNYQVTISIQQFIKAHKTQLTGKALRGVKNTIAVASGKGGVGKSTVTVNLAAALAKLGARVGILDADIYGPSIPLMLGETKPVQVKDNCYIPVEAHGMQAMSIGYLTDTNQALIWRGPMLAKSLIQMLDITLWNELDYLFIDLPPGTGDIQLTLVQKIPLTSAIVVTTPQNVATLDAQKAITMFSRTGIDVLGIIENMSTHICSHCGHQEAIFGRGGAAALCDAYQCTLLGQLPLDSHVRRHCDEGVPTATHSSNQLTDTFIKTAMRTAIELSKKPINYADRFPKIVVEAAALEHHHHHH | soluble |
| MHHHHHHPMEPEIKIVNVVVSTKIGDNIDLEEVAMILENAEYEPEQFPGLVCRLSVPKVALLIFRSGKVNCTGAKSKEEAEIAIKKIIKELKDAGIDVIENPEIKIQNMVATADLGIEPNLDDIALMVEGTEYEPEQFPGLVYRLDDPKVVVLIFGSGKVVITGLKSEEDAKRALKKILDTIKEVQEL | soluble |
